Experimental data published in patent publication US20230357348A1 (AstraZeneca / MedImmune, published 2023).
Starred links: 1 amine or outer side, 2 acyl side, 3 side chain; linkers in the order of their positions; H or OH if unused. Non-standard residues stand in square brackets, D forms with d. Groups on a side chain read outwards from the residue. No end group written: not given here. *: point of attachment. C20 diacid = O=C(O)CCCCCCCCCCCCCCCCCCC(=O)*; C18 diacid = O=C(O)CCCCCCCCCCCCCCCCC(=O)*; γGlu = O=C(O)[C@H](CCC(=O)[*:2])N[*:1]; αMeF = C[C@](N)(Cc1ccccc1)C(=O)O; AEEA = NCCOCCOCC(=O)O; Aib = CC(C)(N)C(=O)O

Assays:
[1] = target: human glucagon receptor (hGCGR) (human, UniProt P47871 26-477); experiment: cell-based or functional assay
human glucagon receptor (hGCGR), sequence (P47871 26-477): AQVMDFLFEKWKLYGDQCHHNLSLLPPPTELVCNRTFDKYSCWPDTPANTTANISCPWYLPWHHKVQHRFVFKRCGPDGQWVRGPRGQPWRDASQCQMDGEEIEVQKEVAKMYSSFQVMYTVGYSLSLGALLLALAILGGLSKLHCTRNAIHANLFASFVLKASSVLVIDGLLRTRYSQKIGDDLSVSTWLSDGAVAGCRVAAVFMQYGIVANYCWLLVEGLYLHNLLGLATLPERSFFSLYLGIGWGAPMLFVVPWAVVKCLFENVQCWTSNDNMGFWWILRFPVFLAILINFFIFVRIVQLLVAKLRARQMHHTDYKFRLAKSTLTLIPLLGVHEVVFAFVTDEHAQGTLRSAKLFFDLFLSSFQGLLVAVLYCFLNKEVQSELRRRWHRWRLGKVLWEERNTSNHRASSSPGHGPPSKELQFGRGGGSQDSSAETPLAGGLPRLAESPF

[2] = target: human GLP-1 receptor (hGLP-1R) (human, UniProt P43220 24-463); experiment: cell-based or functional assay

B1: Peptide 451 (peptide)
peptide: H[Aib]QGTFTSDVSK[αMeF]LDKK([AEEA-AEEA-γGlu-C20 diacid])RARDFVLWLL[Aib]E-NH2
modifications: N-terminus assumed
SMILES: CC(C)C[C@H](NC(=O)[C@H](Cc1c[nH]c2ccccc12)NC(=O)[C@H](CC(C)C)NC(=O)[C@@H](NC(=O)[C@H](Cc1ccccc1)NC(=O)[C@H](CC(=O)O)NC(=O)[C@H](CCCNC(=N)N)NC(=O)[C@H](C)NC(=O)[C@H](CCCNC(=N)N)NC(=O)[C@H](CCCCNC(=O)COCCOCCNC(=O)COCCOCCNC(=O)CC[C@H](NC(=O)CCCCCCCCCCCCCCCCCCC(=O)O)C(=O)O)NC(=O)[C@H](CCCCN)NC(=O)[C@H](CC(=O)O)NC(=O)[C@H](CC(C)C)NC(=O)[C@](C)(Cc1ccccc1)NC(=O)[C@H](CCCCN)NC(=O)[C@H](CO)NC(=O)[C@@H](NC(=O)[C@H](CC(=O)O)NC(=O)[C@H](CO)NC(=O)[C@@H](NC(=O)[C@H](Cc1ccccc1)NC(=O)[C@@H](NC(=O)CNC(=O)[C@H](CCC(N)=O)NC(=O)C(C)(C)NC(=O)[C@@H](N)Cc1c[nH]cn1)[C@@H](C)O)[C@@H](C)O)C(C)C)C(C)C)C(=O)N[C@@H](CC(C)C)C(=O)NC(C)(C)C(=O)N[C@@H](CCC(=O)O)C(N)=O
Q: What does the source list for B1?
A: hGluc-R EC50 (pM) [1]: 503 pM; hGLP-1R EC50 (pM) [2]: 895 pM

B2: Peptide 450 (peptide)
peptide: H[Aib]QGTFTSDVSK[αMeF]LDKK([AEEA-AEEA-γGlu-γGlu-C18 diacid])RAQDFVRWLLE[Aib]G-OH
modifications: N-terminus assumed
SMILES: CC(C)C[C@H](NC(=O)[C@H](Cc1c[nH]c2ccccc12)NC(=O)[C@H](CCCNC(=N)N)NC(=O)[C@@H](NC(=O)[C@H](Cc1ccccc1)NC(=O)[C@H](CC(=O)O)NC(=O)[C@H](CCC(N)=O)NC(=O)[C@H](C)NC(=O)[C@H](CCCNC(=N)N)NC(=O)[C@H](CCCCNC(=O)COCCOCCNC(=O)COCCOCCNC(=O)CC[C@H](NC(=O)CC[C@H](NC(=O)CCCCCCCCCCCCCCCCC(=O)O)C(=O)O)C(=O)O)NC(=O)[C@H](CCCCN)NC(=O)[C@H](CC(=O)O)NC(=O)[C@H](CC(C)C)NC(=O)[C@](C)(Cc1ccccc1)NC(=O)[C@H](CCCCN)NC(=O)[C@H](CO)NC(=O)[C@@H](NC(=O)[C@H](CC(=O)O)NC(=O)[C@H](CO)NC(=O)[C@@H](NC(=O)[C@H](Cc1ccccc1)NC(=O)[C@@H](NC(=O)CNC(=O)[C@H](CCC(N)=O)NC(=O)C(C)(C)NC(=O)[C@@H](N)Cc1c[nH]cn1)[C@@H](C)O)[C@@H](C)O)C(C)C)C(C)C)C(=O)N[C@@H](CC(C)C)C(=O)N[C@@H](CCC(=O)O)C(=O)NC(C)(C)C(=O)NCC(=O)O
Q: How did the “hGluc-R EC50 (pM)” value [1] turn out when B2 was run?
A: 57.8 pM

Q: And the “hGLP-1R EC50 (pM)” value [2]?
A: 57.3 pM

Q: With H[Aib]QGTFTSDVSK[αMeF]LDKK([AEEA-AEEA-γGlu-C20 diacid])RAQDFVRWLLAE-NH2 [Peptide 460] as the binder, how does the “hGluc-R EC50 (pM)” value [1] read?
A: 66.5 pM

Q: And the “hGLP-1R EC50 (pM)” value [2]?
A: 117 pM

Q: With H[Aib]QGTFTSDVSK[αMeF]LDKK([AEEA-AEEA-γGlu-C20 diacid])RAQDFVRWLLE[Aib]G-NH2 [Peptide 453] as the binder, how does the “hGluc-R EC50 (pM)” value [1] read?
A: 162 pM

Q: What about the “hGLP-1R EC50 (pM)” value [2] of the same binder?
A: 170 pM

B3: Peptide 456 (peptide)
peptide: H[Aib]QGTFTSDVSK[αMeF]LDRK([AEEA-AEEA-γGlu-C20 diacid])RAQDFVRWLL[Aib]E-NH2
modifications: N-terminus assumed
SMILES: CC(C)C[C@H](NC(=O)[C@H](Cc1c[nH]c2ccccc12)NC(=O)[C@H](CCCNC(=N)N)NC(=O)[C@@H](NC(=O)[C@H](Cc1ccccc1)NC(=O)[C@H](CC(=O)O)NC(=O)[C@H](CCC(N)=O)NC(=O)[C@H](C)NC(=O)[C@H](CCCNC(=N)N)NC(=O)[C@H](CCCCNC(=O)COCCOCCNC(=O)COCCOCCNC(=O)CC[C@H](NC(=O)CCCCCCCCCCCCCCCCCCC(=O)O)C(=O)O)NC(=O)[C@H](CCCNC(=N)N)NC(=O)[C@H](CC(=O)O)NC(=O)[C@H](CC(C)C)NC(=O)[C@](C)(Cc1ccccc1)NC(=O)[C@H](CCCCN)NC(=O)[C@H](CO)NC(=O)[C@@H](NC(=O)[C@H](CC(=O)O)NC(=O)[C@H](CO)NC(=O)[C@@H](NC(=O)[C@H](Cc1ccccc1)NC(=O)[C@@H](NC(=O)CNC(=O)[C@H](CCC(N)=O)NC(=O)C(C)(C)NC(=O)[C@@H](N)Cc1c[nH]cn1)[C@@H](C)O)[C@@H](C)O)C(C)C)C(C)C)C(=O)N[C@@H](CC(C)C)C(=O)NC(C)(C)C(=O)N[C@@H](CCC(=O)O)C(N)=O
Q: B3 was tested. Which “hGluc-R EC50 (pM)” value [1] did it give?
A: 80.3 pM

Q: And the “hGLP-1R EC50 (pM)” value [2]?
A: 133 pM

B4: Peptide 462 (peptide)
peptide: H[Aib]QGTFTSDVSK[αMeF]LDTK([AEEA-AEEA-γGlu-C18 diacid])RARDFVQWLLEAG-OH
modifications: N-terminus assumed
SMILES: CC(C)C[C@H](NC(=O)[C@H](CC(C)C)NC(=O)[C@H](Cc1c[nH]c2ccccc12)NC(=O)[C@H](CCC(N)=O)NC(=O)[C@@H](NC(=O)[C@H](Cc1ccccc1)NC(=O)[C@H](CC(=O)O)NC(=O)[C@H](CCCNC(=N)N)NC(=O)[C@H](C)NC(=O)[C@H](CCCNC(=N)N)NC(=O)[C@H](CCCCNC(=O)COCCOCCNC(=O)COCCOCCNC(=O)CC[C@H](NC(=O)CCCCCCCCCCCCCCCCC(=O)O)C(=O)O)NC(=O)[C@@H](NC(=O)[C@H](CC(=O)O)NC(=O)[C@H](CC(C)C)NC(=O)[C@](C)(Cc1ccccc1)NC(=O)[C@H](CCCCN)NC(=O)[C@H](CO)NC(=O)[C@@H](NC(=O)[C@H](CC(=O)O)NC(=O)[C@H](CO)NC(=O)[C@@H](NC(=O)[C@H](Cc1ccccc1)NC(=O)[C@@H](NC(=O)CNC(=O)[C@H](CCC(N)=O)NC(=O)C(C)(C)NC(=O)[C@@H](N)Cc1c[nH]cn1)[C@@H](C)O)[C@@H](C)O)C(C)C)[C@@H](C)O)C(C)C)C(=O)N[C@@H](CCC(=O)O)C(=O)N[C@@H](C)C(=O)NCC(=O)O
Q: Which results are given for B4?
A: hGluc-R EC50 (pM) [1]: 89.2 pM; hGLP-1R EC50 (pM) [2]: 39.5 pM

B5: Peptide 452 (peptide)
peptide: H[Aib]QGTFTSDVSK[αMeF]LDKK([AEEA-AEEA-γGlu-C20 diacid])RALDFVRWLL[Aib]E-NH2
modifications: N-terminus assumed
SMILES: CC(C)C[C@H](NC(=O)[C@H](C)NC(=O)[C@H](CCCNC(=N)N)NC(=O)[C@H](CCCCNC(=O)COCCOCCNC(=O)COCCOCCNC(=O)CC[C@H](NC(=O)CCCCCCCCCCCCCCCCCCC(=O)O)C(=O)O)NC(=O)[C@H](CCCCN)NC(=O)[C@H](CC(=O)O)NC(=O)[C@H](CC(C)C)NC(=O)[C@](C)(Cc1ccccc1)NC(=O)[C@H](CCCCN)NC(=O)[C@H](CO)NC(=O)[C@@H](NC(=O)[C@H](CC(=O)O)NC(=O)[C@H](CO)NC(=O)[C@@H](NC(=O)[C@H](Cc1ccccc1)NC(=O)[C@@H](NC(=O)CNC(=O)[C@H](CCC(N)=O)NC(=O)C(C)(C)NC(=O)[C@@H](N)Cc1c[nH]cn1)[C@@H](C)O)[C@@H](C)O)C(C)C)C(=O)N[C@@H](CC(=O)O)C(=O)N[C@@H](Cc1ccccc1)C(=O)N[C@H](C(=O)N[C@@H](CCCNC(=N)N)C(=O)N[C@@H](Cc1c[nH]c2ccccc12)C(=O)N[C@@H](CC(C)C)C(=O)N[C@@H](CC(C)C)C(=O)NC(C)(C)C(=O)N[C@@H](CCC(=O)O)C(N)=O)C(C)C
Q: With B5 as the binder, how does the “hGluc-R EC50 (pM)” value [1] read?
A: 151 pM

Q: And the “hGLP-1R EC50 (pM)” value [2]?
A: 495 pM

B6: Peptide 454 (peptide)
peptide: H[Aib]QGTFTSDVSK[αMeF]LDKK([AEEA-AEEA-γGlu-C20 diacid])RAQDFVRWLEA[Aib]G-NH2
modifications: N-terminus assumed
SMILES: CC(C)C[C@H](NC(=O)[C@H](Cc1c[nH]c2ccccc12)NC(=O)[C@H](CCCNC(=N)N)NC(=O)[C@@H](NC(=O)[C@H](Cc1ccccc1)NC(=O)[C@H](CC(=O)O)NC(=O)[C@H](CCC(N)=O)NC(=O)[C@H](C)NC(=O)[C@H](CCCNC(=N)N)NC(=O)[C@H](CCCCNC(=O)COCCOCCNC(=O)COCCOCCNC(=O)CC[C@H](NC(=O)CCCCCCCCCCCCCCCCCCC(=O)O)C(=O)O)NC(=O)[C@H](CCCCN)NC(=O)[C@H](CC(=O)O)NC(=O)[C@H](CC(C)C)NC(=O)[C@](C)(Cc1ccccc1)NC(=O)[C@H](CCCCN)NC(=O)[C@H](CO)NC(=O)[C@@H](NC(=O)[C@H](CC(=O)O)NC(=O)[C@H](CO)NC(=O)[C@@H](NC(=O)[C@H](Cc1ccccc1)NC(=O)[C@@H](NC(=O)CNC(=O)[C@H](CCC(N)=O)NC(=O)C(C)(C)NC(=O)[C@@H](N)Cc1c[nH]cn1)[C@@H](C)O)[C@@H](C)O)C(C)C)C(C)C)C(=O)N[C@@H](CCC(=O)O)C(=O)N[C@@H](C)C(=O)NC(C)(C)C(=O)NCC(N)=O
Q: With B6 as the binder, how does the “hGluc-R EC50 (pM)” value [1] read?
A: 274 pM

Q: And the “hGLP-1R EC50 (pM)” value [2]?
A: 173 pM

B7: Peptide 455 (peptide)
peptide: H[Aib]QGTFTSDVSK[αMeF]LDKK([AEEA-AEEA-γGlu-γGlu-C20 diacid])RAQDFVRWLL[Aib]E-NH2
modifications: N-terminus assumed
SMILES: CC(C)C[C@H](NC(=O)[C@H](Cc1c[nH]c2ccccc12)NC(=O)[C@H](CCCNC(=N)N)NC(=O)[C@@H](NC(=O)[C@H](Cc1ccccc1)NC(=O)[C@H](CC(=O)O)NC(=O)[C@H](CCC(N)=O)NC(=O)[C@H](C)NC(=O)[C@H](CCCNC(=N)N)NC(=O)[C@H](CCCCNC(=O)COCCOCCNC(=O)COCCOCCNC(=O)CC[C@H](NC(=O)CC[C@H](NC(=O)CCCCCCCCCCCCCCCCCCC(=O)O)C(=O)O)C(=O)O)NC(=O)[C@H](CCCCN)NC(=O)[C@H](CC(=O)O)NC(=O)[C@H](CC(C)C)NC(=O)[C@](C)(Cc1ccccc1)NC(=O)[C@H](CCCCN)NC(=O)[C@H](CO)NC(=O)[C@@H](NC(=O)[C@H](CC(=O)O)NC(=O)[C@H](CO)NC(=O)[C@@H](NC(=O)[C@H](Cc1ccccc1)NC(=O)[C@@H](NC(=O)CNC(=O)[C@H](CCC(N)=O)NC(=O)C(C)(C)NC(=O)[C@@H](N)Cc1c[nH]cn1)[C@@H](C)O)[C@@H](C)O)C(C)C)C(C)C)C(=O)N[C@@H](CC(C)C)C(=O)NC(C)(C)C(=O)N[C@@H](CCC(=O)O)C(N)=O
Q: With B7 as the binder, how does the “hGluc-R EC50 (pM)” value [1] read?
A: 114 pM

Q: What about the “hGLP-1R EC50 (pM)” value [2] of the same binder?
A: 127 pM

Q: Which results are given for H[Aib]QGTFTSDVSK[αMeF]LDKK([AEEA-AEEA-γGlu-C18 diacid])RAQDFVRWLLA (not fully specified (C-terminus)) [Peptide 459]?
A: hGluc-R EC50 (pM) [1]: 36.9 pM; hGLP-1R EC50 (pM) [2]: 32.7 pM
